Patent US8524227B2, “Anti-IL-TIF antibodies” (ZymoGenetics, Inc., priority 2002, dated 2013)

Legend:
IL-TIF = biological target: T1, IL-TIF (Homo sapiens, UniProt Q9GZX6); test: Inhibition of IL-TIF-induced proliferation of BaF3/CRF2-4/zcytor11 cells by soluble receptors; type: cell-based; details: 100 pg/ml IL-TIF
T1 sequence (Q9GZX6 13-179 limits assumed): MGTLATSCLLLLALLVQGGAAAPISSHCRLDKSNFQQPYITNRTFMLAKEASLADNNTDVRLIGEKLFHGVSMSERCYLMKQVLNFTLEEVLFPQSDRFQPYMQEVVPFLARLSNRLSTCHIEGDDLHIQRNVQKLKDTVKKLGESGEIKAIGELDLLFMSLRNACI
Protocol: BaF3/CRF2-4/zcytor11 cells described herein were spun down and washed in PBS 2 times to ensure the removal of the mIL-3, and then spun a third time and re-suspended in the complete media (RPMI 1640, 10% FBS, 1% GlutaMAX, 1% Sodium Pyruvate), but without mIL-3 (hereinafter referred to as “mIL-3 free media”). Cells were then counted in a hemocytometer. Cells were plated in a 96-well format at 5000 cells per well in a volume of 100 μl per well using the mIL-3 free media.
IL-TIF protein (SEQ ID NO:3) was diluted to 200 pg/ml in mIL-3 free media. Zcytor16-Fc4 fusion protein (described herein) was diluted to 1 μg/ml in the mIL-3 free/IL-TIF media on the top row of the plate, and then diluted serially 1:2 down the remaining 7 rows on the 96-well plate, leaving a volume of 100 μl in each well. This was then added to the 100 μl of cells, for a final IL-TIF concentration of 100 pg/ml in all wells, and final Zcytor16-Fc4 concentrations of approximately […], 0.016, and 0.008 μg/ml in a total assay volume of 200 μl. CRF2-4/zcytor11-Fc4 was diluted to 8 μg/ml in the mIL-3 free/IL-TIF media on the top row of the plate, and then diluted serially 1:2 down the remaining 7 rows on the 96-well plate, leaving a volume of 100 μl in each well. This was then added to the 100 μl of cells, for a final IL-TIF concentration of 100 pg/ml in all wells, and final CRF2-4/zcytor11-Fc4 concentrations of approximately […], 0.25, 0.125 and 0.063 μg/ml, in a total assay volume of 200 The assay plates were incubated at 37° C., 5% CO2 for 4 days at which time Alamar Blue (Accumed, Chicago, Ill.) was added at […]. Plates were again incubated at 37° C., 5% CO2 for 16 hours. Alamar Blue gives a fluourometric readout based on number of live cells, and is thus a direct measurement of cell proliferation in comparison to a negative control. Plates were read on the Wallac Victor 2 1420 Multilabel Counter (Wallac, Turku, Finland) at wavelengths 530 (Excitation) and 590 (Emmssion). […] IL-TIF alone stimulated the cells 13-fold over background.

[1] = Mouse collagen induced arthritis (CIA) model; type: in vivo, mice; details: for IL-6 levels / SAA concentrations: Day 0 serum 4 hr post 25 μg LPS
Protocol: Ten week old male DBA/1J mice (Jackson Labs) were divided into 3 groups of 13 mice/group. On day-21, animals were given a subcutaneous injection of 50-100 μl of 1 mg/ml chick Type II collagen formulated in Complete Freund's Adjuvant (prepared by Chondrex, Redmond, Wash.), and three weeks later on Day 0 they were given a 100 μl (25 μg) injection of LPS from E. coli 0111:B4, prepared as 250 μg/ml from a lyophilized aliquot (Sigma, St. Louis, Mo.). Zcytor16 was administered as an intraperitoneal injection 3 times a week for 4 weeks, from Day 0 to Day 25. The first two groups received either 100 or 10 μg of zcytor16 per animal per dose, and the third group received the vehicle control, PBS (Life Technologies, Rockville, Md.). Animals began to show symptoms of arthritis following the LPS injection, with most animals developing inflammation within 2-3 weeks. The extent of disease was evaluated in each paw by using a caliper to measure paw thickness, and by assigning a clinical score (0-3) to each paw: 0=Normal, 0.5=Toe(s) inflamed, 1=Mild paw inflammation, 2=Moderate paw inflammation, and 3=Severe paw inflammation as detailed below.
All animals were observed daily to assess the status of the disease in their paws, which was done by assigning a qualitative clinical score to each of the paws. Every day, each animal has its 4 paws scored according to its state of clinical disease. To determine the clinical score, the paw can be thought of as having 3 zones, the toes, the paw itself (manus or pes), and the wrist or ankle joint. The extent and severity of the inflammation relative to these zones was noted including observation all the toes for any joint swelling, torn nails, or redness, notation of any evidence of edema or redness in any of the paws, and notation any loss of fine anatomic demarcation of tendons or bones, and evaluation the wrist or ankle for any edema or redness, and notation if the inflammation extends proximally up the leg. A paw a score of 1, 2, or 3 was based first on the overall impression of severity, and second on how many zones were involved. The scale used for clinical scoring is shown below.
Blood was collected throughout the experiment to monitor serum levels of anti-collagen antibodies. Animals were euthanized on Day 21, and blood was collected for serum and for CBC's. From each animal, one affected paw was collected in 10% NBF for histology and one was frozen in liquid nitrogen and stored at […] for mRNA analysis. Also, ½ spleen, ½ thymus, ½ mesenteric lymph node, one liver lobe and the left kidney were collected in RNAlater for RNA analysis, and ½ spleen, ½ thymus, ½ mesenteric lymph node, the remaining liver, and the right kidney were collected in 10% NBF for histology. Serum was collected and frozen at −80° C. for immunoglobulin and cytokine assays.
Approximately 100 μL of peripheral blood was collected by retro-orbital bleed into serum separator tubes (Becton Dickinson). Serum was collected by centrifugation (2-3 min, 16,000×g, 4-6° C.) and stored at −20° C. until analyzed. To determine anti-collagen Ig antibody levels, NUNC plates were coated with 10 μg/mL chick type-II collagen (Chondrex, Redmond Wash.) and incubated overnight at 4° C. Plates were washed with ELISA C, blocked (5 minutes, room temperature) with Super Block (Pierce, Rockford, Ill.), and washed with ELISA C. Diluted serum samples (diluted in ELISA B 5-fold from 1:5000 to 1:625,000) were added to ELISA plates in triplicate and the plates were incubated overnight at 4° C. After incubation, the plates were washed with ELISA C, and peroxidase-labeled goat anti-mouse Ig Fc (Zymed, 1:2000 in ELISA B) was added. The plates were incubated (room temperature, 90 minutes), rinsed again using ELISA C, and HRP activity was developed using o-phenylenediamine dihydrochloride substrate (10 mL NovoD+1 tablet OPD+10 μL H2O2, Pierce). The reaction was stopped with 1N H2SO4. […]

B1: zcytor16-Fc4: soluble receptor for IL-TIF, zcytor16 fused to Fc4; IL-TIF antagonist (protein)
chain: TQSTHESLKPQRVQFQSRNFHNILQWQPGRALTGNSSVYFVQYKIYGQRQWKNKEDCWGTQELSCDLTSETSDIQEPYYGRVRAASAGSYSEWSMTPRFTPWWETKIDPPVMNITQVNGSLLVILHAPNLPYRYQKEKNVSIEDYYELLYRVFIINNSLEKEQKVYEGAHRAVEIEALTPHSSYCVVAEIYQPMLDRRSQRSEERCVEIPEPRSSDKTHTCPPCPAPEAEGAPSVFLFPPKPKDTLMISRTPEVTCVVVDVSHEDPEVKFNWYVDGVEVHNAKTKPREEQYNSTYRVVSVLTVLHQDWLNGKEYKCKVSNKALPSSIEKTISKAKGQPREPQVYTLPPSRDELTKNQVSLTCLVKGFYPSDIAVEWESNGQPENNYKTTPPVLDSDGSFFLYSKLTVDKSRWQQGNVFSCSVMHEALHNHYTQKSLSLSPGK
concentrations completely inhibiting proliferation (IL-TIF): 0.025 to 1 µg/mL | concentrations partially inhibiting proliferation, lower end (IL-TIF): ≥ 8 ng/mL | inhibition of the proliferative effect of IL-TIF (IL-TIF): strong dose-dependant inhibition | disease score (paw score, incident of inflammation or disease) ([1]; 10 μg three times a week for 4 weeks): significantly reduced the disease score | IL-6 levels ([1]; 10 μg zcytor16): 10,865+/−1478 pg/ml | SAA concentrations ([1]; 10 μg zcytor16): 348 ± 37 µg/mL | levels of anti-collagen antibodies ([1]; 100 μg or 10 μg groups vs PBS, serum ELISA): no statistically significant effects | IL-6 levels ([1]; 100 μg zcytor16): 9651 ± 1563 pg/mL | SAA concentrations ([1]; 100 μg zcytor16): 381 ± 40 µg/mL | paw scores and measurements ([1]; 100 or 10 μg IP 3 times a week for 4 weeks vs PBS): No statistically significant differences | changes in body weight, CBC parameters, or anti-collagen antibody levels ([1]; 100 or 10 μg IP vs PBS): no significant differences
